According to PMC2602781:

What was measured:
[1] = target: I-Vdi141I … homing endonuclease, wild type (Vulcanisaeta distributa strain IC-141); assay: SEC
[2] = target: T1, I-Vdi141I I65M/I107M (selenomethionyl) (V. distributa strain IC-141, UniProt Q6L703 1-169, I65M;I107M); assay: X-ray crystallography
T1 sequence: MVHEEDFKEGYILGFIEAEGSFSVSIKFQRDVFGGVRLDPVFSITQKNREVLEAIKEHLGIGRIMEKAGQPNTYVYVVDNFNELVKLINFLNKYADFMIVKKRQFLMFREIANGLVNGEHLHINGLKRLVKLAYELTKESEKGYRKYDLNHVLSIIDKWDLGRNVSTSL

I-Vdi141I … homing endonuclease, wild type (enzyme)
stoichiometry N [1]: 2

B1: 22 bp I-Vdi141I target site duplex (dsDNA)
DNA 1: CTGACTCTCTTAAGGTAGCCAA
DNA 2: TTGGCTACCTTAAGAGAGTCAG
binding result [2]: binds
